Reference: patent publication EP4737484A1 (Phil Rivers Technology Co., Ltd, dated 2026)

Experiments:
[1] = molecular target: T1, huIL-1β-His (human, UniProt P01584 117-269); experiment: ELISA, plate coated with huIL-1β-His, anti-human IgG Fc-HRP
[2] = molecular target: T1, huIL-1β-His; experiment: ELISA, plate coated with huIL-1β-His, anti-human IgG Fc-HRP; positive control
[3] = molecular target: T2, huPD-L1-His (human, UniProt Q9NZQ7 19-238); experiment: ELISA, plate coated with huPD-L1-His, anti-human IgG Fc-HRP
T2 construct: also called human recombinant protein huPD-L1-His; antigen PD-L1

[4] = molecular target: T3, full-length human PD-L1 on huPD-L1-CHO-K cells (human, UniProt Q9NZQ7 19-290); experiment: flow cytometry on huPD-L1-CHO-K cells, PE anti-human IgG Fc
T3 construct: also called huPD-L1-overexpressing-CHO-K cells; CD3L-PD-L1-CHO

[5] = molecular target: T2, huPD-L1-His; experiment: bridging ELISA: coated huIL-1β-Fc, antibody, then huPD-L1-His, anti-His-HRP
[6] = molecular target: T4, huIL-1β-Fc (human); experiment: as above
T4 construct: also called huIL-1β-Fe

[7] = molecular target: T1, huIL-1β-His; experiment: bridging ELISA: coated huPD-L1-Fc, antibody, then huIL-1β-His, anti-His-HRP
[8] = molecular target: huPD-L1-Fc (human); experiment: as above

Binder | binding result [1] | binding result [4] | other results
BsAb17 (bispecific antibody, Atezolizumab heavy (Knob) and light chain; Canakinumab VH-CL-Fc (hole); also called Construct BsAb17) heavy: not shown light: not shown chain 1: not shown chain 2: EIVLTQSPDFQSVTPKEKVTITCRASQSIGSSLHWYQQKPDQSPKLLIKYASQSFSGVPSRFSGSGSGTDFTLTINSLEAEDAAAYYCHQSSSLPFTFGPGTKVDIKSSASTKGPSVFPLAPSSKSTSGGTAALGCLVKDYFPEPVTVSWNSGALTSGVHTFPAVLQSSGLYSLSSVVTVPSSSLGTQTYICNVNHKPSNTKVDKKVEPKSC | binds |  | 
BsAb22 (bispecific antibody, Atezolizumab heavy chain (Fc with F405L) and light chain; Canakinumab VH-CL-Fc (K409R); also called Construct BsAb22) heavy: not shown light: not shown chain 1: not shown chain 2: EIVLTQSPDFQSVTPKEKVTITCRASQSIGSSLHWYQQKPDQSPKLLIKYASQSFSGVPSRFSGSGSGTDFTLTINSLEAEDAAAYYCHQSSSLPFTFGPGTKVDIKSSASTKGPSVFPLAPSSKSTSGGTAALGCLVKDYFPEPVTVSWNSGALTSGVHTFPAVLQSSGLYSLSSVVTVPSSSLGTQTYICNVNHKPSNTKVDKRVEPKSC | binds |  | 
Canakinumab (antibody, human IgG1, kappa, V domains shown, also called positive control Canakinumab) VH: QVQLVESGGGVVQPGRSLRLSCAASGFTFSVYGMNWVRQAPGKGLEWVAIIWYDGDNQYYADSVKGRFTISRDNSKNTLYLQMNGLRAEDTAVYYCARDLRTGPFDYWGQGTLVTVSS VL: EIVLTQSPDFQSVTPKEKVTITCRASQSIGSSLHWYQQKPDQSPKLLIKYASQSFSGVPSRFSGSGSGTDFTLTINSLEAEDAAAYYCHQSSSLPFTFGPGTKVDIKR |  |  | binding result [2]: binds
BsAb25 (bispecific antibody, Canakinumab IgG1 heavy chain-(G4S)4-Atezolizumab scFv (VH G44C-(G4S)4-VL Q100C); also called Construct BsAb25) heavy: not shown light: EIVLTQSPDFQSVTPKEKVTITCRASQSIGSSLHWYQQKPDQSPKLLIKYASQSFSGVPSRFSGSGSGTDFTLTINSLEAEDAAAYYCHQSSSLPFTFGPGTKVDIKRTVAAPSVFIFPPSDEQLKSGTASVVCLLNNFYPREAKVQWKVDNALQSGNSQESVTEQDSKDSTYSLSSTLTLSKADYEKHKVYACEVTHQGLSSPVTKSFNRGEC | binds | binds | binding result [3]: binds
BsAb29 (bispecific antibody, also called Construct BsAb29) heavy: not shown light: EIVLTQSPDFQSVTPKEKVTITCRASQSIGSSLHWYQQKPDQSPKLLIKYASQSFSGVPSRFSGSGSGTDFTLTINSLEAEDAAAYYCHQSSSLPFTFGPGTKVDIKRTVAAPSVFIFPPSDEQLKSGTASVVCLLNNFYPREAKVQWKVDNALQSGNSQESVTEQDSKDSTYSLSSTLTLSKADYEKHKVYACEVTHQGLSSPVTKSFNRGEC |  | binds | binding result [5]: binds; binding result [6]: binds; binding result [7]: binds; binding result [8]: binds
BsAb18 (bispecific antibody, Atezolizumab heavy (Knob) and light chain; Canakinumab VL-IgG1 constant region (hole); also called Construct BsAb18) heavy: not shown light: not shown chain 1: not shown chain 2: QVQLVESGGGVVQPGRSLRLSCAASGFTFSVYGMNWVRQAPGKGLEWVAIIWYDGDNQYYADSVKGRFTISRDNSKNTLYLQMNGLRAEDTAVYYCARDLRTGPFDYWGQGTLVTVSSASVAAPSVFIFPPSDEQLKSGTASVVCLLNNFYPREAKVQWKVDNALQSGNSQESVTEQDSKDSTYSLSSTLTLSKADYEKHKVYACEVTHQGLSSPVTKSFNRGEC | binds |  | 
